Laboratory results from article PMC4336547 (Cellular and molecular life sciences : CMLS, 2011).
One block for each binder: values may come before it.

Columns and labels:
[1] = target: T1, murine claudin-3 wild type, untagged (Cld3wt) (mouse), Q9Z0G9; experiment: contact enrichment; settings: remark: other sources report otherwise
T1 chain: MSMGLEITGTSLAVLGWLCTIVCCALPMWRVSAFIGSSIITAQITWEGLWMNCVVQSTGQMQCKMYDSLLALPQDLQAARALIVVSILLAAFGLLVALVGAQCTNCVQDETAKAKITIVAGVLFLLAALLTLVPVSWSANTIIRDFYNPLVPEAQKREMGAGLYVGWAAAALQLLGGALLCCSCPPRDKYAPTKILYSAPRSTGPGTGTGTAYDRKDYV

FRET or BRET = target: the molecule itself; experiment: FRET or BRET

percentage of contacts with EF > 1.5 (PE) [1]: 91%
B1: murine claudin-3 wild type, untagged (Cld3wt), Q9Z0G9 1-219 (natural protein)
chain: T1 chain

B2: mouse claudin-5 wild type, CFP or YFP fusion (Cld5wt-CFP / Cld5wt-YFP) (natural protein, UniProt O54942 1-218, looked up)
chain: MGSAALEILGLVLCLVGWVGLILACGLPMWQVTAFLDHNIVTAQTTWKGLWMSCVVQSTGHMQCKVYESVLALSAEVQAARALTVGAVLLALVALFVTLTGAQCTTCVAPGPVKARVALTGGALYAVCGLLALVPLCWFANIVVREFYDPTVPVSQKYELGAALYIGWAASALLMCGGGLVCCGAWVCTGRPEFSFPVKYSAPRRPTANGDYDKKNYV
mean FRET efficiency against the negative control Cld5/CRFR1 (FRET or BRET): 10 fold
